Results: patent US20080050387A1 (published 2008)

T1: vitamin D receptor (VDR) (UniProt P11473 1-427)
T1 construct: also called VP16-VDR; VP 16-VDR
T1 sequence: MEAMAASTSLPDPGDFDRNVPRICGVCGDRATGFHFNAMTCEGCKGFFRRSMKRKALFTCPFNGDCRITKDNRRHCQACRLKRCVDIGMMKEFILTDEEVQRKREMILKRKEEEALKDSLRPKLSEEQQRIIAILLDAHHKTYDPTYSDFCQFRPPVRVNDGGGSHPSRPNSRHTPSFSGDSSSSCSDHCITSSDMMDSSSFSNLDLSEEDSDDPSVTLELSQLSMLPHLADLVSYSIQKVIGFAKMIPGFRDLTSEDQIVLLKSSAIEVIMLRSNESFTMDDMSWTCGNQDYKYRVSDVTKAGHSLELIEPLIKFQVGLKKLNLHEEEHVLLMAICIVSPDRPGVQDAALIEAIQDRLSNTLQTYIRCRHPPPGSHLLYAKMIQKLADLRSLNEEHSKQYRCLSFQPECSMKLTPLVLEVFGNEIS

T2: estrogen receptor α (ERα) (UniProt P03372 1-595)
T2 construct: also called VP16-ERα; ERcc
T2 sequence: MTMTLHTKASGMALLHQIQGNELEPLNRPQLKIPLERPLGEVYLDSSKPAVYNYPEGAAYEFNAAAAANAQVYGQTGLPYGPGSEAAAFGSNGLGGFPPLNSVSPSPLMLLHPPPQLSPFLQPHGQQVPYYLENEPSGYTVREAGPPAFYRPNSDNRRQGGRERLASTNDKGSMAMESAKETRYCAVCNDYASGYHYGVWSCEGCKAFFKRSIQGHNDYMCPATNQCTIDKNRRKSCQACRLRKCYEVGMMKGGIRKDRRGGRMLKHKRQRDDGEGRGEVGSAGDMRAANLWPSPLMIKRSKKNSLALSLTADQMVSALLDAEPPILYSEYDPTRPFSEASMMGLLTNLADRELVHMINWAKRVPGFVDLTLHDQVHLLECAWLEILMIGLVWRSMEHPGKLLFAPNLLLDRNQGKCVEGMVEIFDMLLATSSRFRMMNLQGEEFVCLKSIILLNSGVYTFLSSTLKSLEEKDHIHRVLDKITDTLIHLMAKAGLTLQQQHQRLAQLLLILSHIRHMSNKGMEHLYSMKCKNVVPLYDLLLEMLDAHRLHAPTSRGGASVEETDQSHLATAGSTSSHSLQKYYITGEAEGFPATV

T3: AR DBD-LBD (human, UniProt P10275 557-920)
T3 sequence: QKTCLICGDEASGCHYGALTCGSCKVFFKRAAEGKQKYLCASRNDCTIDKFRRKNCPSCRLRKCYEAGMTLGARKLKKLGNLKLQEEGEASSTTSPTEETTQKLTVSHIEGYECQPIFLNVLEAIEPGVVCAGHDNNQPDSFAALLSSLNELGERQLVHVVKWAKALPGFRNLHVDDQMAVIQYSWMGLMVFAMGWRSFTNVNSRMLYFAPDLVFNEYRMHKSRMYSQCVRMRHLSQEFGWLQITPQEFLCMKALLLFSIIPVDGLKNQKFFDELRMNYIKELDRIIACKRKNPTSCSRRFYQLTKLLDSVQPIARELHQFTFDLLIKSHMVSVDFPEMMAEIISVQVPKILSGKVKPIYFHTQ

T4: AR N-terminus, full length ARN (ARN1-556) (human, UniProt P10275 1-557)
T4 sequence: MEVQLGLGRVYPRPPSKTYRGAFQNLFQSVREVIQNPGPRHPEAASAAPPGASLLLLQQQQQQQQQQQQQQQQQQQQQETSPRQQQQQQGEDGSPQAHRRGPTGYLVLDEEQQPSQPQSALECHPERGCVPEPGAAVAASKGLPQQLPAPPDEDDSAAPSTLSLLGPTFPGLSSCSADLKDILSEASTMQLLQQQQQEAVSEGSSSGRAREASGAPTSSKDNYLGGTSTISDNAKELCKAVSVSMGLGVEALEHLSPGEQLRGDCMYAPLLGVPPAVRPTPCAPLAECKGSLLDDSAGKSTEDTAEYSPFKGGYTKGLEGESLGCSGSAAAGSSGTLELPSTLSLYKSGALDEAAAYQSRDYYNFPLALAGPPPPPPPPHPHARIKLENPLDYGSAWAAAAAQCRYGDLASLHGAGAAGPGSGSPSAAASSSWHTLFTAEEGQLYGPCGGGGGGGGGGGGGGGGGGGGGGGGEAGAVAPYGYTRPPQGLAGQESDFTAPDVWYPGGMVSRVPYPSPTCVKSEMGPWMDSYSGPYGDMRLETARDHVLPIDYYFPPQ

T5: VP16-AR containing the residues 37 to 919 (human, UniProt P10275 37-920)
T5 construct: also called pCMX-VP16-AR; full length AR fused to VP16
T5 sequence: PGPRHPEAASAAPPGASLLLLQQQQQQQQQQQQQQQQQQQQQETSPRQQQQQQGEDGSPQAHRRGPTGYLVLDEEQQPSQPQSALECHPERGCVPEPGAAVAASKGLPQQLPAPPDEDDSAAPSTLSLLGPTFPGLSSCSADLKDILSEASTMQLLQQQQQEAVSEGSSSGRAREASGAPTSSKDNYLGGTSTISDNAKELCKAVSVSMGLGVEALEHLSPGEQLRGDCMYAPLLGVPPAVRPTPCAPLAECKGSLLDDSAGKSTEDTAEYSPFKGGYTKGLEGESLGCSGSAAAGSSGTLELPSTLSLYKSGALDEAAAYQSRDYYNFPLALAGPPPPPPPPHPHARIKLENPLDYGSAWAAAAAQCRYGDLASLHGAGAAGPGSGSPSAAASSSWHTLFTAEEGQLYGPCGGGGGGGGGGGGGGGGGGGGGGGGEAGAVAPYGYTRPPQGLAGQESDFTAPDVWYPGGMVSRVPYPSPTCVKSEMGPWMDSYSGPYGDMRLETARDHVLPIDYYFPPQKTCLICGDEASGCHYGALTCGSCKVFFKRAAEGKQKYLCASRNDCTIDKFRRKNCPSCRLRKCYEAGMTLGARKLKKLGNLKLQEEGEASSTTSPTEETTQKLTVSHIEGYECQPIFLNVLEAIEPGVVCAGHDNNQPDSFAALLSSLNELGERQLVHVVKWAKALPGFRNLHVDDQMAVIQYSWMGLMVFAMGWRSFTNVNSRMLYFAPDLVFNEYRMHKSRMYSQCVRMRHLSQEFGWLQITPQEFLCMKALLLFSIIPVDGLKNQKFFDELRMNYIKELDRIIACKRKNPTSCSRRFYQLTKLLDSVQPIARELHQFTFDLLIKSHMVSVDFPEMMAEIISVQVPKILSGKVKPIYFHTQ

T6: ARA67 clone of the CytoTrap screen, amino acids 20-585 of PAT1 (pMyr-ARA67) (Homo sapiens, UniProt Q92624 20-585)
T6 construct: The clone matched the DNA encoding aa 20-585 of PAT1 at 99.6% identity; also called pMyr-ARA67/PAT1
T6 sequence: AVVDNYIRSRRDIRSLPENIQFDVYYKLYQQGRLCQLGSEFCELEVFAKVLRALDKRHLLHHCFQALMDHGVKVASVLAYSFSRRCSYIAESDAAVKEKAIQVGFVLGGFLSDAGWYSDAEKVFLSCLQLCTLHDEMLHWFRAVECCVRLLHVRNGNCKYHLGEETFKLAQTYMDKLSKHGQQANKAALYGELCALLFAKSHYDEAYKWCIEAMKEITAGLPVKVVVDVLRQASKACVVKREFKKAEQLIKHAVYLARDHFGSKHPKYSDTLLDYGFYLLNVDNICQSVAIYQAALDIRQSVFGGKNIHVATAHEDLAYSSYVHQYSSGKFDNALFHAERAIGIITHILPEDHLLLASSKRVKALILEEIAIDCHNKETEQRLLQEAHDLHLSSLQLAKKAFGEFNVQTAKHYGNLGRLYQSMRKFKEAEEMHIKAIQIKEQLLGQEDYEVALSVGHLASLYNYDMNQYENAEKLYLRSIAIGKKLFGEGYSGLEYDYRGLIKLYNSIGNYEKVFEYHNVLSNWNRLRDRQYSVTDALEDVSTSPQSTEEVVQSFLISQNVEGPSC

B1: f-hRad9, fragment of hRad9 isolated from yeast (aa 327-391) (other)
chain: LSPGPQPPKSPGPHSEEEDEAEPSTVPGTPPPKKFRSLFFGSILAPVRSPQGPSPVLAEDSEGEG
B2: human checkpoint protein hRad9, full length (other)
chain: MKCLVTGGNVKVLGKAVHSLSRIGDELYLEPLEDGLSLRTVNSSRSAYACFLFAPLFFQQYQAATPGQDLLRCKILMKSFLSVFRSLAMLEKTVEKCCISLNGRSSRLVVQLHCKFGVRKTHNLSFQDCESLQAVFDPASCPHMLRAPARVLGEAVLPFSPALAEVTLGIGRGRRVILRSYHEEEADSTAKAMVTEMCLGEEDFQQLQAQEGVAITFCLKEFRGLLSFAESANLNLSIHFDAPGRPAIFTIKDSLLDGHFVLATLSDTDSHSQDLGSPERHQPVPQLQAHSTPHPDDFANDDIDSYMIAMETTIGNEGSRVLPSISLSPGPQPPKSPGPHSEEEDEAEPSTVPGTPPPKKFRSLFFGSILAPVRSPQGPSPVLAEDSEGEG
notes: Used as GST-hRad9 on beads, as GAL4 DBD fusion (mammalian two-hybrid), as Flag-hRad9 in 293T cells and as endogenous hRad9 of CWR22R cells; also called FL-hRad9; GST-hRad9
B3: AR DNA-binding domain (AR DBD) (receptor)
chain: KTCLICGDEASGCHYGALTCGSCKVFFKRAAEGKQKYLCASRNDCTIDKFRRKNCPSCRLRKCYEAG
notes: also called GAL4-AR-DBD
B4: testicular receptor 2 (TR2) (receptor)
chain: MATIEEIAHQIIEQQMGEIVTEQQTGQKIQIVTALDHNTQGKQFILTNHDGSTPSKVILARQDSTPGKVFLTTPDAAGVNQLFFTTPDLSAQHLQLLTDNSPDQGPNKVFDLCVVCGDKASGRHYGAVTCEGCKGFFKRSIRKNLVYSCRGSKDCIINKHHRNRCQYCRLQRCIAFGMKQDSVQCERKPIEVSREKSSNCAASTEKIYIRKDLRSPLTATPTFVTDSESTRSTGLLDSGMFMNIHPSGVKTESAVLMTSDKAESCQGDLSTLANVVTSLANLGKTKDLSQNSNEMSMIESLSNDDTSLCEFQEMQTNGDVSRAFDTLAKALNPGESTACQSSVAGMEGSVHLITGDSSINYTEKEGPLLSDSHVAFRLTMPSPMPEYLNVHYIGESASRLLFLSMHWALSIPSFQALGQENSISLVKAYWNELFTLGLAQCWQVMNVATILATFVNCLHNSLQQDAKVIAALIHFTRRAITDL
notes: hSos fusion (pSos-TR2) in yeast; also called pSos-TR2

What was measured:
[1] = biological target: B3; test: yeast two-hybrid (AH109), GAL4-AR-DBD + f-hRad9 fused to an activation domain, 10 nM DHT
vitamin D receptor (VDR) = biological target: T1, vitamin D receptor (VDR); test: mammalian two-hybrid in PC-3 cells, pM-f-hRad9 + VP16-VDR
[2] = biological target: T2, estrogen receptor α (ERα); test: mammalian two-hybrid in PC-3 cells, pM-f-hRad9 + VP16-ERα, in the presence of estrogen
AR DBD-LBD = biological target: T3, AR DBD-LBD; test: cell-based or functional assay
[3] = biological target: T4, AR N-terminus, full length ARN …; test: GST pull-down: GST-hRad9 with 35S-labeled AR domains
[4] = biological target: T5, VP16-AR containing the residues 37 to …; test: mammalian two-hybrid in PC-3 cells, GAL4 DBD-FL-hRad9 + VP16-AR; inhibited by hydroxyflutamide
[5] = biological target: B2; test: GST pull-down: GST-hRad9 with 35S-labeled AR domains
[6] = biological target: T6, ARA67 clone of the CytoTrap screen, …; test: CytoTrap Sos yeast two-hybrid, growth of cdc25H on SD/Gal(-LU) at 37° C

B1: no binding [1]; no binding (vitamin D receptor (VDR)); no binding [2]. The “reporter activity (yeast two-hybrid, liquid β-gal assay, 10 nM DHT)” value (AR DBD-LBD) was 10 fold.

B2: no binding [3]; binds [4].

B3: no binding [5].

B4: no binding [6].
